Laboratory results as given in patent US20230324389.

B1: ST14/Matriptase (protein)
chain: GSDEKDCDCGLRSFTRQARVVGGTDADEGEWPWQVSLHALGQGHICGASLISPNWLVSAAHCYIDDRGFRYSDPTQWTAFLGLHDQSQRSAPGVQERRLKRIISHPFFNDFTFDYDIALLELEKPAEYSSMVRPICLPDASHVFPAGKAIWVTGWGHTQYGGTGALILQKGEIRVINQTTCENLLPQQITPRMMCVGFLSGGVDSCQGDSGGPLSSVEADGRIFQAGVVSWGDGCAQRNKPGVYTRLPLFRDWIKENTGV
B2: MMP2 (protein)
chain: YNFFPRKPKWDKNQITYRIIGYTPDLDPETVDDAFARAFQVWSDVTPLRFSRIHDGEADIMINFGRWEHGDGYPFDGKDGLLAHAFAPGTGVGGDSHFDDDELWTLGEGQVVRVKYGNADGEYCKFPFLFNGKEYNSCTDTGRSDGFLWCSTTYNFEKDGKYGFCPHEALFTMGGNAEGQPCKFPFRFQGTSYDSCTTEGRTDGYRWCGTTEDYDRDKKYGFCPETAMSTVGGNSEGAPCVFPFTFLGNKYESCTSAGRSDGKMWCATTANYDDDRKWGFCPDQGYSLFLVAAHEFGHAMGLEHSQDPGALMAPIYTYTKNFRLSQDDIKGIQELYGASPDIDLGTGPTPTLGPVTPEICKQDIVFDGIAQIRGEIFFFKDRFIWRTVTPRDKPMGPLLVATFWPELPEKIDAVYEAPQEEKAVFFAGNEYWIYSASTLERGYPKPLTSLGLPPDVQRVDAAFNWSKNKKTYIFAGDKFWRYNEVKKKMDPGFPKLIADAWNAIPDNLDAVVDLQGGGHSYFFKGAYYLKLENQSLKSVKFGSIKSDWLGC
B3: MMP7 (protein)
chain: YSLFPNSPKWTSKVVTYRIVSYTRDLPHITVDRLVSKALNMWGKEIPLHFRKVVWGTADIMIGFARGAHGDSYPFDGPGNTLAHAFAPGTGLGGDAHFDEDERWTDGSSLGINFLYAATHELGHSLGMGHSSDPNAVMYPTYGNGDPQNFKLSQDDIKGIQKLYGKRSNSRKK
B4: Legumain (protein)
chain: VPIDDPEDGGKHWVVIVAGSNGWYNYRHQADACHAYQIIHRNGIPDEQIVVMMYDDIAYSEDNPTPGIVINRPNGTDVYQGVPKDYTGEDVTPQNFLAVLRGDAEAVKGIGSGKVLKSGPQDHVFIYFTDHGSTGILVFPNEDLHVKDLNETIHYMYKHKMYRKMVFYIEACESGSMMNHLPDNINVYATTAANPRESSYACYYDEKRSTYLGDWYSVNWMEDSDVEDLTKETLHKQYHLVKSHTNTSHVMQYGNKTISTMKVMQFQGMKRKASSPVPLPPVTHLDLTPSPDVPLTIMKRKLMNTN

Target: 818-P1

| Protein | unmasking (protease cleavage) rate |
| --- | --- |
| B1 | ST14 unmaking was characterized by 818-C1MA>818-P1>818-C1 MB |
| B2 | MMP2: 818-P1>818-C1MA>818-C1 MB |
| B3 | MMP1: 818-P1>818-C1MA=818-C1 MB |
| B4 | Legumain demonstrated minimal unmasking differences |

Target: 818-C1 MB

| Protein | unmasking (protease cleavage) rate |
| --- | --- |
| B1 | ST14 unmaking was characterized by 818-C1MA>818-P1>818-C1 MB |
| B2 | MMP2: 818-P1>818-C1MA>818-C1 MB |
| B3 | MMP1: 818-P1>818-C1MA=818-C1 MB |
| B4 | Legumain demonstrated minimal unmasking differences |

Target: 818-C1MA

| Protein | unmasking (protease cleavage) rate |
| --- | --- |
| B1 | ST14 unmaking was characterized by 818-C1MA>818-P1>818-C1 MB |
| B2 | MMP2: 818-P1>818-C1MA>818-C1 MB |
| B3 | MMP1: 818-P1>818-C1MA=818-C1 MB |
| B4 | Legumain demonstrated minimal unmasking differences |
